Measurements as given in the nanobody polyreactivity screen of Harvey et al. (2022).

Experiment: yeast display, Sf9 membrane polyspecificity reagent, FACS + sequencing; frameworks hold sequencing errors
In short: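 Using colony PCR, genes from sorted yeast display clones were amplified, then sequenced on MiSeq at 2 × 250 and filtered by CDR length. The clones had been stained with 10% biotinylated, detergent-solubilized Sf9 membrane reagent for 1 hour at 4 °C and sorted by FACS into low and high (top ~1%) gates on anti-HA and streptavidin fluorescence. Polyreactivity labels come from the gate of origin.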

| Sequence | polyreactivity (PSR sort gate) |
| --- | --- |
| QVQLVESGGGLVQAGGSLRLSCAASGSIFTLYAMGWYRQAPGKERELVAAITWTGGSTYYADSVKGRFTISRDNAKNTVYLQMNSLKPEDTAVYYCATDGYWQSNGAFYYVARHGGYWGQGTQVTVSS | low polyreactivity |
| QVQLQESSGGLVQAGGSLRMSCAASGTIFHIHIMGRYRQAPGKEGEFVAAISYGTSTYYADSVKGRFTISRDNAKNTVYLQMNSQKPEDTAVYYCAVYDYLEVYFWYWGQGTQVTVSS | low polyreactivity |
| QFQLVESGGGLVQAGGSLRLSCAASGINFSSYVMGWYRQAPGKERELVAAISKSGARTSYADSVKGRFSISRDNAKNTVYLQMNSLKPEDTAVYYCNAYTESWYPIYFFGWSYTAVDYWGQGTQVTVSS | low polyreactivity |
| QVQLVESGGCLVQAGGSLRLIRDASGFIIRPYAMGWYRQAPGKEREFVAAITGGGSTYYADSVKGRFTISRDNAKNTVYLQMNSLKPEDTAVYYCNADRRRRSGGFAGWHFQRKDYWGQGTQVTVSS | low polyreactivity |
| QVQLVESGGGLVQAGGSLRLSCAASGITFSYYAMGWYRQAPGKEREFVAAISWSGGSTYYADSVKGRFTISRDNAKNTVYLQMNSLKPEDTAVYYCAADRYPYGLDYWGQGTQVTVSS | high polyreactivity |
| QVQRVESGGGLVQAGGSLRLSCPASGSTLYGYAMGWYRPSPGKERELVAGITRGGSTSYADSEKGRFTISRDNAKNTVYLQMNSLKPEDTAVYYCAARSYPGSPVRYDYWGQGTQVTVSS | high polyreactivity |
| QVQHVESGGGLVQAGGSLRLSCAASGAIFWGYAMGWYRQAPGKERELVATISWTGGSTYYADSVKGRFTISRDNAKNTVYLQMNSLKPEDTAVYYCAKVIIHYYYLVNLVDVDYWGQGTQVTVSS | low polyreactivity |
| QVQLVESGGGLVQAGGSLRLSCAASGRIFGRYAMGWYRQAPGKERELVADITYRTGRTYYADSVKGRFTISRDNAKNTVYLQMNSMKPEDTAVYYCAAESTSDPIDFEYWGQGTQVTVSS | low polyreactivity |
| QVQLVESGGGLVQAGGSLRLSCAASGFILVDYAMGWYRQAPGKERELVAAITYDGGSTYYADSVKGRFTISRDNAKNTVYLQMNSLKPEDTAVYYCAADYGYSQYILGQFRLEELDYWGQGTQVTVSS | low polyreactivity |
| QVQLEESGGGLVQAGGSLRLSCVASGSTFRFYAMGWYRPAPGNERQLVAAITWRGTSTYYADSVKGRFTISRDNAKNSVYLQMNSLKPEDTAVYYCNAAGYWPATGDYWGQGTQVTVSS | high polyreactivity |
| QVQLVESGGGLVQAGGSLRLICAASGRIFYGYAMGWYRQAPGKEREFVAAITVSAGSTYYADSVKGRFTISRDYAKNTVYLQMNSLKPEDTAVYYCAAKRYVYPSYRFDYWGQGTQVTVSS | low polyreactivity |
| QVQLVESGGGLVQAGGSLRLSCPASGRTMGGNAMGWYRQAPGKEREFVARISTRGVRKYYADSVKGRFTISRDNAKNTVYLQMNSLKPEDTAVYYCAKHVSYGHIGAYPDRDSWGQGTQVTVSS | low polyreactivity |
| QVQLVESGGGLVQAGGSLRLSCAASGRIYYPYAMGWYRQAPGKERELVASINYRGGSTYYADSVKGRFTISRDNAKNTVYLQMNSLKPEDTAVYYCAARFYWKYWRYDYWGQGTQVTVSS | high polyreactivity |
| QVQLVESGGGLVQAGGSHRLSCAASGRTFLTNAMGWYRQAPGKERELVAAIRWSGTSTYYADSVKGRFTISRDNAKNTVYLQMNSLKPEDTAVYYCAARKVYGSKYGYWGQGTQVTVSS | high polyreactivity |
| QVQLVESGGGLVQAGGSLRLSCAASGNTLTYNVMGWYRQAPGKERELVAAISGRGGRTYYADSVKGRFTISRDNAKNTVYLQMNCLKPEDTAVYYCAAKSRNGESGGFDYWGQATQVTVSS | high polyreactivity |
| QFQLVESGGGLVQAGGSLRLSCAASGRIFCSYAMGWYIQAPGKERELVAAITSGGSTNYADSVKARFTISRDNAKNTVYLLMNSLKQEDTAVYYCADVEYLRESDYWGQGTQVTVSS | low polyreactivity |
| HVQLVESGGGLFQAGGSLRLCCAASGSISGLYAMGWYRQAPGKERELVAAITLRDGTTSYADSVKGRFTISRDNAKITVYLQMNSLKPEDTDVYYCAAVDRDSKCSVPTLDHWGQGTQVTVSS | low polyreactivity |
| QVQLVESGGGLVQAGGSLRLSCAASGRTFVIYDMGWYRQAPGKERELVAGITRSGGSTYADSVKGRFTISRDNAKNTVYLQMNSLKPEDTAVYYCARRKLYHKSPYDYWGQGTQVTVSS | low polyreactivity |
| QVQLVESGGGLVQAGGSLRLSCAASGRILASYAMGWYRQAPGKEWELVAAIRYRGSTSYADSVKGRFTISRDNAKNTVYLQMNSLKPEDTGVYYCAAKWHVRGRGARYRYDYDFWGQGTQVTVSS | low polyreactivity |
| QVQLVESGGGLVQAGGSLRLSCAASGRTFYRYAMGWYRQAPGKERELFAAISGSGTSTSYADSVKGRFTISRDNAKNTVYLQLNSLKPDDTAVYYCAATYYVYYYSRYYYWGQGTQVTVSS | high polyreactivity |
| QVQLVESGGGLVQAGGSLRLSCAASGFTFSYYAMGWYRQAPGKERELVAAITSTGGSTYYADSVKGRFTISRDNAKNTVYLQMNSLKPEDTAVYYCATRGANRTGYKDDYWGQGTQVTVSS | high polyreactivity |
| QVHLVESGGGLVQAGGSLRLSCADSGSTFTSYAMGWYRQAPGKERDLVAAINYSGGSTYYADSVKGRFTISRDNAKNTVYLQMNSLKPEDTAVYYCAADGYIRQYVTYYYWGKGTQVTVSS | low polyreactivity |

| Sequence | polyreactivity (PSR sort gate) |
| --- | --- |
| QVQLVESGGGLVQAGGSLRLSFAASGSTFSRNTMGWYRQAPGKERELVAAISKSGGRTYYADSVKGRFTISRDNAKNTVYLQINSLKPEDSAVYYCNAAVYAYASDYWGQGTQVTVSS | high polyreactivity |
| QVQLVESGGGLVQAGGSLRLSCAASGGIFDRYAMGWYRQAPGKERELVAAITGSGGRTYYADSVKGRFTISRDKAKNSVYLQMTSLKPVDPAVYYCARAFGQRRYDYWGHGTQVTVSS | high polyreactivity |
| QVQLVESGGGLVQAGGSLRFSCAASGINIWTNVMGWYIQAPRKESEFVAAISRSGGSTYYADSVKGSFTISRDNAKNTVYLQMISLKPEDTAVYYCAARWSYSVQKFDYWGQGTQLTVSS | high polyreactivity |
| QVQLVESGGGLVQAGGSLRLSCAASGRIFWRNAMGWSRQAPGKERELVAAISSGGSTYYADSVKGRFTISRDNAKNTVYLQMNSLKPEDTAVYYCAARSSWRGVRYDHFERVYWGQGTQVTVSS | high polyreactivity |
| QVQLVESGGGLVQAGGSLRLSCAASGSIFRYYAMGWYRQAPGKERELVAAISNRGSSTNYADSVKGRFTISRDNAKNTVYLQMNSLKPEDTAVYYCAARVRYPGLSGNMYYWGQGTQVTVSS | high polyreactivity |
| QVQLVESGGGLVQAGGSLRLSCAASGRIFWHNAMGWYRQAPGKERELVAAISSRGGSTSYADSVKGRFTISRDNAKNTVYLQMNSLKPEDTAVYYCNARNQGYYRVWGYRGDYWGQGTQVTVSS | low polyreactivity |
| QVQLVESGGGLVPAGGSLRLICAASGSTFYGYAIGWYRPAPGKVRELVATITSGGTRTRYADSVKGRFTISRDNAKKTVYLQMNSLKPEDTAVYYCNAVYRARSYDYWGQGTQVTVSS | high polyreactivity |
| QVQLVESGGGLVQAGGSLRLSCAASGSTFATYAMGWYRQAPGKERELVAAIRVSGGTTYADSVKGRFTISRDNAKNTVYLQMNSLKPEDNAVYYCAATGWEVYDIFDYWVQGTQVTVSS | low polyreactivity |
| QVQLLESGGGLVQARGSLRLSCAASGRNFVPYVMGWYRQAPGKERELVASISDSDTSTYYADSVKGRFTISRDNAKNTVYLQMNSLKPEDTAVYYCNVDYWGQGTQVTVSS | low polyreactivity |
| QVQLVESAGGLVQAGGSLRLSCAASGSTLYPYDMGWYRQAPGKERELVAAIDSGGSTNYADSVKGRFTISRDNAKNTVYLQMNSLKPEDTAVYYCAADASGENDYWGQGTQVTVSS | low polyreactivity |
| QVQLVESGGGLVQAGGSLRLSCAASGSTFLPYAMGWYRQAPGKERELVAAIRWSVGSTYYADSVKGRFTISRDNAKNTVYLQMNSLIPEVTAGYYCYAVVYVVGDFDYWGQGSQVTVSS | high polyreactivity |
| RVQLVESGGGLVQAGGRLRLSCAASRFTFIVNPMGWYRQAPGKERELVAAISWNGGSTYYADSVKGRFTISRDNAKNTVYLQMNSLKPEDTAVYYCAVLYRSEYDWGQGTQVTVSS | low polyreactivity |
| QVQLVESGGGLVQAGGSLRLSCAASGFIFVYNAMGWYRQATGKERELVAAIDYGGGSTTYADSVKVRFTISRDNAKNTVYLQMNSLKPEDTAVYYCAAYYRYLDDIYEYEYWGQGTQVTVSS | low polyreactivity |
| QVQLVESGGGLVQAGGSLRLSCAASGFTLGYNAMGWYRQAPGKERELVAGITWSGGSTSYADSVKGRFTISRDNAKNTVYLQMYSLKPADTAVYYCAKLRRYSGWLPWPYAYDYWGQGTQVTVSS | high polyreactivity |
| QVQLVKSGGGLVQAGGSLRLSCAASGSTFYNAMGWYRQAPGKEREWVAAISIGGSTYYADSVKGRFTISRDNAKNTVYLQMNSLKPEDTAVYYCNSDLYYWLRYYDRNDYWGQGTQVTVSS | low polyreactivity |
| QVQLVESGGGLVQAGGSLRLSCAASGSIFWGNAMGWYRQAPGKERELVAAIDWSGGSTYYADSVKGRFTISRDNAKNTVYLQMHSLKPEDTAVYYCAASGRYDYDYWGQGTQVTVSS | low polyreactivity |
| QVQLVESGGGLVQAGGSLRLSCAASGFIIAGYAMGWYRQAHGKEMELVAAISSRGGSTYYADSVKGRFTISRDNAKNTFYLQMNSLKPEDTSVYYCARTTPTGRQYRRYDYWGQGTQVTESS | low polyreactivity |
| QVQLVESGGGLVQAGGSLRLSCAASGSIFAVYAMGWYRQAPGKERELVAVITRSGGSTYYADSVKGRFTISRDNAKNTFYLQMNSLKPEDTAVYYCAARTGYGYTRYEYWGQGTQVTVSS | high polyreactivity |
| QVQLVESGGGLVQAGGSLRLSCAGSGRTFEINAMGWYRQAPGKERELVAAITVSGGSTYYADSVKGRFTISRDNAKNTVYLQMNSLKPEDTAVYYCAVEIVYGQGKEVNSWGQGTQVTVSS | low polyreactivity |
| QVQLVESGGGLVQAGGSLRLRCAASGGIFGRYAMGWYRQAPGKERELVAAISKRGGSTYYADSVKGRFTISRDNAKNTVYLLMNSLKPEDTAVYYCNASQSVELGYDYLGQGTQVTVSS | high polyreactivity |
| QVQLVESGGGIVQAGGSLRLSCAASGFIFDAYAMGWYRQAPGKERELVAGISIGGRTIYADSVKGRFTISRDNAKNTVYLQMNSLKPEDTAVYYCAARNYRYYYGSYYRGPITNYEYWGQGTQVTVSS | low polyreactivity |
